Data reported in paper PMC10482006.

Target: Kcnj13 (Kir7.1) from D. rerio fused to mCherry (D. rerio)
Test: mass photometry; OneMP mass photometer (Refeyn), buffer E, sample diluted 1:10 immediately before analysis, mass calibrated with NativeMark; protein solubilised in DDM with CHS

## Kcnj13 (Kir7.1) from D. rerio fused to mCherry (natural protein)
  stoichiometry N: 4
